Data: the DeepSol protein solubility set

assay: soluble on expression in E. coli; label from the status in PepcDB or PDB records

Sequence | soluble on expression in E. coli
MDKILGIKFRDYGQVYYFLAGEAEVSLGDRVIVETDQGQGIGEVIAVRDDRPSDAGDEELQPILRVAEGEDLERAETNEAMGAEAAAYCRECIRARNLDMKLVDVEVFFDLSKLIFYFTAPSRIDFRELVKDLVKHYRTRIELRQIGVRHETQMIGAVGNCGMVCCCRRYLRKFAPVTIKMAKEQNLFLNPAKISGICGRLLCCLSYEQENYEEFHRSCPRLGKKYMTNRGPVKVLRANMFRNSLMAFTDTGEEIEISLDEWQQLDPRRPDQQPQQARPPRRDRPEGGSARDGNGDRAPAPSSDRAAGATGGEAARHGGGRAGERSDRGGRPDRAERADRRGMPHGDVPGSGETPPAGGEAEADAPSLHAAGVEFATEQPAPFDTSPDGGAVMGMEQVEALEHHHHHH | not soluble
MDKKTACAHVAEPCEFSYSTRDAIIYALGVGARAKEDLCYVYENHEDFKVLPSYIVAPGFQAHTLMDWPGVEFDLQRVLHGEQYIEVYQPLSAEGKLKSEARVVDILDKGSGALILGNVTTYDENGKKIAMQQFSTFQTGSGNFGGDRTSPHEIKAATVPDRAPDAVIEQKTTVDQAALYRLGSGDMNPLHVDPEFAKMSGFKTPILHGLCSLGFATRHVIAAWAGNDSDKFKAIKVRFSSPVLPGQTLVTETWKNGKRIIFQMKVKETGKIVISNAFIDLHEASELPTVPIDLASKL | not soluble
MDKLKVAELFAGVGGFRLGLENTKEKIFDVTWANQWEPSKKIQHAFDCYNSRFITGEHVNKDIALISDEEIANTKADMVVGGFPCQDYSVARSLSGELGIQGKKGVLFWQIIRFIQNTYPKYLLLENVDRLLKSPSSQRGRDFGVMLSTLNELGYNVEWRVINAADYGNAQRRRRVFIFGYKQDLEHHHHHH | soluble
MDKMVSYLFKGEVKNPYVFLVLGKDKEIEHTVRTDVIVVGVLDWKKGNLSFVSIPRDLMIEGKKINAIYNTYGMEKLFQIIESLLGQKPDSYVIFNYEAFKILVDELGPIEVIPNEVMFYEDLSQNLVIDFKPGVPYKLNGEQLLAYIRYRKDSMGDLARIERQKDVLKKLLSKALSRNPLEISVLYKKISPYIETDIGLPEILTLFSKLKNSVRVSFSTLPYNVDSDGSIFVDEKRLVSFKENLIGSSVQEKYRVNFLVVNTSSLVSRVFEANLRGVWKDRVGFEPDRVVWEDVGISQKFEGDHVFIGEPEKEDYILEILRKAHPSRHFTVHRFDRPEDYTMYYTILESLAKNRIYPDFPVSALILIDDFRELEHHHHHH | soluble
MDLFPVLKELAQKTPSKILLIVLDGVGGLPLEPGGPTELEAAKTPNLDRLAEESALGLLTPVYPGLAPGSGPGHLALFGYDPFRYVVGRGALSALGLGADFREGDVALRGNFATLDPEGKVVDRRAGRPPTEENQRVVAKLKEAIPRIEDVEVHFYTESEHRFLVVLRGEGLGDAVTDTDPQKTGLPPLKAKALDEASERTARLVNLLSERIREVLKDEPRMNGALFRGASKKPSFPRMQEVYKLTPAAIASYPMYKGLASLVGMEVLPVEGEGDALEGKLKALKENWGRYDFFYFHVKKTDAMGEDGNFHGKVEKVELFDALLPEILALGPDVLAITGDHSTPALLKAHSWHPVPLLLKAPYLRADEARRFTEREAQRGSLGHLRGMELMPLLLAHAGKLLKYGALEHHHHHH | not soluble
MDLKQYITIVPDFPKPGIMFKDITTLMDNGPAYKYATDQIVQYAREKQIEIVVGPEARGFIIGCPVAYALGVGFAPVRKEGKLPREVVRVEYGLEYGTDVLTMHKDAIKPGQRVLITDDLLATGGTMRATIDLVEQLGGVVAGLAFLIELTELGGRKKLEGYDILTLMQF | soluble
MDLLDKVMGEMGSKPGSTAKKPATSASSTPRTNVWGTAKKPSSQQQPPKPLFTTPGSQQGSLGGRIPKREHTDRTGPDPKRKPLGGLSVPDSFNNFGTFRVQMNAWNLDISKMDERISRIMFRATLVHTDGRRFELSLGVSAFSGDVNRQQRRQAQCLLFRAWFKRNPELFKGMTDPAIAAYDAAETIYVGCSFFDVELTEHVCHLTEADFSPQEWKIVSLISRRSGSTFEIRIKTNPPIYTRGPNALTLENRSELTRIIEAITDQCLHNEKFLLYSSGTFPTKGGDIASPDEVTLIKSGFVKTTKIVDRDGVPDAIMTVDTTKSPFYKDTSLLKFFTAKMDQLTNSGGGPRGHNGGRERRDGGGNSRKYDDRRSPRDGEIDYDERTVSHYQRQFQDERISDGMLNTLKQSLKGLDCQPIHLKDSKANRSIMIDEIHTGTADSVTFEQKLPDGEMKLTSITEYYLQRYNYRLKFPHLPLVTSKRAKCYDFYPMELMSILPGQRIKQSHMTVDIQSYMTGKMSSLPDQHIKQSKLVLTEYLKLGDQPANRQMDAFRVSLKSIQPIVTNAHWLSPPDMKFANNQLYSLNPTRGVRFQTNGKFVMPARVKSVTIINYDKEFNRNVDMFAEGLAKHCSEQGMKFDSRPNSWKKVNLGSSDRRGTKVEIEEAIRNGVTIVFGIIAEKRPDMHDILKYFEEKLGQQTIQISSETADKFMRDHGGKQTIDNVIRKLNPKCGGTNFLIDVPESVGHRVVCNNSAEMRAKLYAKTQFIGFEMSHTGARTRFDIQKVMFDGDPTVVGVAYSLKHSAQLGGFSYFQESRLHKLTNLQEKMQICLNAYEQSSSYLPETVVVYRVGSGEGDYPQIVNEVNEMKLAARKKKHGYNPKFLVICTQRNSHIRVFPEHINERGKSMEQNVKSGTCVDVPGASHGYEEFILCCQTPLIGTVKPTKYTIIVNDCRWSKNEIMNVTYHLAFAHQVSYAPPAIPNVSYAAQNLAKRGHNNYKTHTKLVDMNDYSYRIKEKHEEIISSEEVDDILMRDFIETVSNDLNAMTINGRNFWA | not soluble
MDLMAYWLCITNEDNWKVIKEKKIWGVAERYKNTINKVKVGDKLIIYEIQRSGKDYKPPYIRGVYEVVSEVYKDSSKIFKPTPRNPNEKFPYRVKLKEIKVFEPPINFKELIPKLKFITNKKRWSGHLMGKAMREIPEEDYKLIVGN | soluble
MDLSELERDNTGRCRLSSPVPAVCLKEPCVLGVDEAGRGPVLGPMVYAICYCPLSRLADLEALKVADSKTLTENERERLFAKMEEDGDFVGWALDVLSPNLISTSMLGRVKYNLNSLSHDTAAGLIQYALDQNVNVTQVFVDTVGMPETYQARLQQHFPGIEVTVKAKADSLFPVVSAASIFAKVARDKAVKNWQFVENLQDLDSDYGSGYPNDPKTKAWLRKHVDPVFGFPQFVRFSWSTAQAILEKEAEDVIWEDSEAEEDPERPGKITSYFSQGPQTCRPQAPHRYFQERGLEAASSL | soluble
MDLSMTTPEEITQYLQDHPEFFEEHPDLLESLRFPHPYEGRVISINERQVAMLREKNKLLQNRLQELIDVGENNDAISEKMHRLTVALLGFGSLPELLHELQYHLCEDFSIPHVVLRLWQIDEFGTEADLPSPEFDPISNNVRILAQGMLRPYCGPEVDDEIRQWFAQDAEYLKSFAVIPLKKQSNFGLLVMASPEAERFYPDMGTLYLERLGDMVSSSIMRLIQQTPGAANRESAS | not soluble
MDNGTDSSTSKFVPEYRRTNFKNKGRFSADELRRRRDTQQVELRKAKRDEALAKRRNFIPPTDGADSDEEDESSVSADQQFYSQLQQELPQMTQQLNSDDMQEQLSATVKFRQILSREHRPPIDVVIQAGVVPRLVEFMRENQPEMLQLEAAWALTNIASGTSAQTKVVVDADAVPLFIQLLYTGSVEVKEQAIWALGNVAGDSTDYRDYVLQCNAMEPILGLFNSNKPSLIRTATWTLSNLCRGKKPQPDWSVVSQALPTLAKLIYSMDTETLVDACWAISYLSDGPQEAIQAVIDVRIPKRLVELLSHESTLVQTPALRAVGNIVTGNDLQTQVVINAGVLPALRLLLSSPKENIKKEACWTISNITAGNTEQIQAVIDANLIPPLVKLLEVAEYKTKKEACWAISNASSGGLQRPDIIRYLVSQGCIKPLCDLLEIADNRIIEVTLDALENILKMGEADKEARGLNINENADFIEKAGGMEKIFNCQQNENDKIYEKAYKIIETYFGEEEDAVDETMAPQNAGNTFG | soluble
MDNPTTPIAVVGPTASGKSALGVSLAHHLNGEVVNVDSMQLYKGMDIGTAKLTLEEREGIVHHLLDVWDISETASVARYQSQAIAVVEDIQRRGKTPILVGGSMLYVQSLVDDWQFPPTDPSVRAKWESKLNEVGVEALHALLAQKDPQAASIIELKDPRRTVRALEVIELTGKPFNASQPPKNAPPRWNTQIIGLGTNTEWLNPRIDLRTELMFEKGFVHEVENLVGKGLIADSTAGHAIGYAQVLQHFAGELSVDEMIEHTKIGTRRYVRRQRSWFKRDPRIHWIDASGDTFSMALSLLS | not soluble
MDNSGKEAEAMALLAEAERKVKNSQSFFSGLFGGSSKIEEACEIYARAANMFKMAKNWSAAGNAFCQAAQLHLQLQSKHDAATCFVDAGNAFKKADPQEAINCLMRAIEIYTDMGRFTIAAKHHISIAEIYETELVDIEKAIAHYEQSADYYKGEESNSSANKCLLKVAGYAALLEQYQKAIDIYEQVGTNAMDSPLLKYSAKDYFFKAALCHFCIDMLNAKLAVQKYEELFPAFSDSRECKLMKKLLEAHEEQNVDSYTESVKEYDSISRLDQWLTTMLLRIKKTIQGDEEDLR | soluble
MDNTEDVIKEFMQFKVRMEGSVNGHYFEIEGEGEGKPYEGTQTAKLQVTKGGPLPFAWDILSPQFQYGSKAYVKHPADIPDYMKLSFPEGFTWERSMNFEDGGVVEVQQDSSLQDGTFIYKVKFKGVNFPADGPVMQKKTAGWEPSTEKLYPQDGVLKGEISHALKLKDGGHYTCDFKTVYKAKKPVQLPGNHYVDSKLDITNHNEDYTVVEQYEHAEARHSGSQ | soluble
MDPIASVLEKVKSFTKSSQDLVSRHFGFHENPSRLNPIDILKRLQRETFSDLMKLRERQEKVERIISSQKLSKGGPFQETSTHVRGEVDVLGAILLMGNTDEESFNGLNKEGVRPGLLSRFVFETSLRETDRLVAELVAGYNGAGSHRDFLGGELSLAKVFYKADINDWFSAIAIPVGAHFRDIEASTVSSYQGMSLTEVSELGPPLLSQHNGSAIGLTFRKSNITASLAQSMSNVEVEQGLTAPNRCFRTFGQVTCHILRSLKLSLLGCHQVLTSSSNLHSVGAITVPVSFLRRHTATEPEPSAPPLEMSRNMNHVSSSSIALKLDSLMDESTKLGGWIEIQNSREKQVKWSVSITDNPEDEVGWGMSVGGVVDGSRNHDQFQVESYLKFNIGDRFRLSPCLVYHTNSDGRTIGLMLKSHWSL | soluble
MDPKFLVVEIDSKERALQLVQVMLENGFARFMLLDDLSRHPTLDRIQREEPRISRDELRETASSPVTFETRHSPYPVHEQKVLFPSFSQVSNSMVTSTGIRQEASSVGVGPIEDDDIVEEEEEEDIRLTSKPCVKRRYDHHAEEQEYRDQLMSLLSGEPEIVPIGVNSNDEPSGSNSDSAAKKAKSVGDYHECQLCGVRVKTPRSGRWNLQMHVIALHCVGRQYKCKQCDYLDYRKSTMRKHTVSQHGSDIPPHNITDNIMKAEWHAAMIKCFPEFAHRTGFLN | not soluble
MDPSENVFKYETAYDLLVRLGAERLFLRTCLSILDPVLELHPGKCYEIDGDLGVGKTQICYSFAAKFLQTKKTAKMGWIGATPLRTDHLLLHIEHFGNQTNEDILDRIVCKRVEKIAELQDSLTRFLDTINLQLVIVENIDAILHDTVYHKEMGRSMQSDVVERIRKLTKLEITVILTNHITHWRGYPAPALGAFWSSQINNRFFIEKRNDDSDIRIVSAMKGEQDDGMNRIEFKIGDRGLKAVE | not soluble
MDPSMYPGASATYLSYPQQNASQDYLGAYAAQTTTTTRNTANGSTSSDHLLGDPSSSCSPRETSPSTTSLVLTIRLLMQGKEVGSIIGKKGDQIKKIREESGAKINISDGSCPERIVTITGTLGVIGKAFNMVCNKFEEDMLLLPNSVPKPPITMRVIVPATQCGSLIGKGGSKIKDIREATGASIQVASEMLPHSTERAVTLSGTADAINLATSLKIPGSTKRLHNHIPPKTNVQPIGNRHVSGYNCRTTTTGTGSTATRRGSTYGWRTGTGVQVQQQLVTNALLQQHQFAAVQQELAARAALFNQQLMMPGQQQQASQAQEVYLGQHGLIYTANGVQLGGQDNSKAMEAGAAAAAAAQWQGYDMAAMQQQQQQQQQLLNQYALNQSMLIGAPFMKGGPTPPGTTSGKATSSGASAQGAATSSARFHPY | not soluble
